The values below come from patent US20170081400A1 (CEPHALON, published 2017).

Experiment [1] has as its target T1, human TL1A extracellular domain with N-terminal HIS and FLAG tag (human) (UniProt O95150).
T1 sequence: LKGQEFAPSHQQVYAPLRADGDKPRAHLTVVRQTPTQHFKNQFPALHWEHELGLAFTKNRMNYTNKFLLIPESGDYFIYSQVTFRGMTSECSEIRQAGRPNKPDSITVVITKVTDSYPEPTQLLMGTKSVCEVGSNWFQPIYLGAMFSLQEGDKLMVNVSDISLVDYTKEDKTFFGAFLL
The experiment in a line: cell-based or functional assay.

Experiment [2] deals with T2, human TL1A extracellular domain with N-terminal HIS and FLAG tag (human, UniProt O95150 72-251).
T2 construct: whole entry named. ~70 kDa fraction purified by gel filtration
T2 sequence: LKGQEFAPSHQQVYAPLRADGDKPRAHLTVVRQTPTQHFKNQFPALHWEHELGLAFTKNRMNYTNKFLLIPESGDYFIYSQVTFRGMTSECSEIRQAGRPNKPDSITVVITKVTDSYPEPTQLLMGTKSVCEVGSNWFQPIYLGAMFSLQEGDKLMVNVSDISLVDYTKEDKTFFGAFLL
The experiment in a line: SPR run 1; purified antibody on Protein A; TL1A 10 ug/mL; timepoint 590. From the text:
(§1) 1.5. Antibody expression and antigen binding as determined by SPR. Using a CM5 sensor chip (GE Healthcare) Protein A (Pierce) was coupled to the chip surface using an amine coupling kit (GE Healthcare). Protein A was coupled on flow cell 1 and 2 (or alternatively 3 and 4) using a BIACORE® T200. […] The amount of supernatant or purified protein (as well as the concentration) injected during the capture stage varied between runs and is specified in the header of the Tables 3-11. At the end of injection of the supernatant or purified antibody the change in response units was measured. This value was reported as Capture Level in Tables 3-11. […] The response units were measured prior to the end of the dissociation phase. […] The sensorgrams were double referenced (flow cell 2 is subtracted from flow cell 1 and a buffer blank). As there were a large number of antibody variants to screen, these were screened across different runs (Tables 3-11). […] A summary of the conditions used in each run is below:
(§2) 2.1. […] In some experiment the antibodies were purified using Protein A chromatography (See 1.4) and purified antibodies were used in BIACORE® (GE Healthcare) experiments.

The target in experiment [3] is T2, human TL1A extracellular domain with …. The experiment in a line: SPR run 1; purified antibody on Protein A; TL1A 10 ug/mL; timepoint 59.
Description: as §1, §2

Experiment [4] concerns the target T3, human TL1A extracellular domain with N-terminal HIS and FLAG tag (human, UniProt O95150 72-251).
T3 construct: the whole entry is named; also called TNFSF15
T3 sequence: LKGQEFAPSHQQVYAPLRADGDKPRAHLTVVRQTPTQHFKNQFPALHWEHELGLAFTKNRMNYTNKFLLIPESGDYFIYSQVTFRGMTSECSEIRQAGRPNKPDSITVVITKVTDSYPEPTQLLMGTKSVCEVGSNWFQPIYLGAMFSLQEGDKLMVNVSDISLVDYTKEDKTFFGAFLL
Nature of the experiment: SPR Run 8, antibody on Protein A, TL1A 5 ug/mL, timepoint 590.
Description: as §1, §2

Experiment [5] addresses T3, human TL1A extracellular domain with …. Nature of the experiment: SPR Run 8, antibody on Protein A, TL1A 5 ug/mL, timepoint 44.
Description: as §1, §2

The target is the same in experiment [6]. The experiment in a line: cell-based or functional assay.

B1: 320-184 (antibody, human IgG1, name in Kabat numbering, V domains shown)
VH: QVQLVQSGAEVKKPGASVKVSCKASGYTFTSYDINWVRQAPGQGLEWMGWLNPNSGNTGYAQKFQGRVTMTADRSTSTAYMELSSLRSEDTAVYYCAREVPETAAFEYWGQGTLVTVSS
VL: QSVLTQPPSVSGAPGQRVTISCTSSSSDIGAGLGVHWYQQLPGTAPKLLIEGYYNRPSGVPDRFSGSKSGTSASLTITGLAPEDEGDYYCQSYDGTLSALFGGGTKLTVLG
notes: human IgG1, lambda
On to B1, for which, in experiment [1], the Antibody IC50, TL1A induced caspase potency assay in TF-1 cells stood at 10 ng/mL and the Fold improvement over 320-179, TL1A induced caspase potency assay in TF-1 cells was 3 fold. In addition, the “TL1A Binding Level (Late)” value in experiment [2] came out at 118 RU. Moreover, the “TL1A Binding Level (Early)” value in experiment [3] amounted to 141 RU.

B2: 320-595 (antibody, human IgG1, name in Kabat numbering, V domains shown)
VH: QVQLVQSGAEVKKPGASVKVSCKASGYTFTSYDINWVRQAPGQGLEWMGWLNPNSGYTGYAQKFQGRVTMTADRSTSTAYMELSSLRSEDTAVYYCAREVPETAAFEYWGQGTLVTVSS
VL: QSVLTQPPSVSGAPGQRVTISCTSSSSDIGAGLGVLWYQQLPGTAPKLLIEGYYNRPSGVPDRFSGSKSGTSASLTITGLLPEDEGDYYCQSWDGTLSALFGGGTKLTVLG
notes: full-length human IgG1, lambda
B2: the “TL1A Binding Level (Late)” value in experiment [4] is 128 RU. Further, the “TL1A Binding Level (Early)” value in experiment [5] stood at 129 RU. Besides, in experiment [6], the “Antibody IC50, TL1A induced caspase potency assay in TF-1 cells” value (from here on “Antibody IC50”) turned out to be 3 ng/mL and the “Fold improvement over 320-179, TL1A induced caspase potency assay in TF-1 cells” value (“Fold improvement” for short) worked out at 20 fold.

B3: 320-185 (antibody, human IgG1, name in Kabat numbering, V domains shown)
VH: QVQLVQSGAEVKKPGASVKVSCKASGYTFTSYDINWVRQAPGQGLEWMGWLNPNSGNTGYAQKFQGRVTMTADRSTSTAYMELSSLRSEDTAVYYCAREVPETAAFEYWGQGTLVTVSS
VL: QSVLTQPPSVSGAPGQRVTISCTSSSSDIGAGLGVHWYQQLPGTAPKLLIEGYYNRPSGVPDRFSGSKSGTSASLTITGLSPEDEGDYYCQSYDGTLSALFGGGTKLTVLG
notes: human IgG1, lambda
Turning to B3, in experiment [1], the Antibody IC50, TL1A induced caspase potency assay in TF-1 cells was 20 ng/mL and the Fold improvement over 320-179, TL1A induced caspase potency assay in TF-1 cells stood at 2 fold. Moreover, the “TL1A Binding Level (Late)” value in experiment [2] was 114 RU. Also, the “TL1A Binding Level (Early)” value in experiment [3] is 137 RU.

B4: 320-187 (antibody, human IgG1, name in Kabat numbering, V domains shown)
VH: QVQLVQSGAEVKKPGASVKVSCKASGYTFTSYDINWVRQAPGQGLEWMGWLNPNSGNTGYAQKFQGRVTMTADRSTSTAYMELSSLRSEDTAVYYCAREVPETAAFEYWGQGTLVTVSS
VL: QSVLTQPPSVSGAPGQRVTISCTSSSSDIGAGLGVHWYQQLPGTAPKLLIEGYYNRPSGVPDRFSGSKSGTSASLTITGLDPEDEGDYYCQSYDGTLSALFGGGTKLTVLG
notes: human IgG1, lambda
In the case of B4, in experiment [1], the Antibody IC50, TL1A induced caspase potency assay in TF-1 cells was found to be 20 ng/mL and the Fold improvement over 320-179, TL1A induced caspase potency assay in TF-1 cells worked out at 2 fold. For the same molecule, the “TL1A Binding Level (Late)” value in experiment [2] was 112 RU. In experiment [3], the “TL1A Binding Level (Early)” value came to 134 RU.

B5: 320-189 (antibody, human IgG1, name in Kabat numbering, V domains shown)
VH: QVQLVQSGAEVKKPGASVKVSCKASGYTFTSYDINWVRQAPGQGLEWMGWLNPNSGNTGYAQKFQGRVTMTADRSTSTAYMELSSLRSEDTAVYYCAREVPETAAFEYWGQGTLVTVSS
VL: QSVLTQPPSVSGAPGQRVTISCTSSSSDIGAGLGVHWYQQLPGTAPKLLIEGYYNRPSGVPDRFSGSKSGTSASLTITGLKPEDEGDYYCQSYDGTLSALFGGGTKLTVLG
notes: human IgG1, lambda
In experiment [1], B5 showed an Antibody IC50, TL1A induced caspase potency assay in TF-1 cells of 110 ng/mL and a Fold improvement over 320-179, TL1A induced caspase potency assay in TF-1 cells of 0 fold. Besides, the “TL1A Binding Level (Late)” value in experiment [2] turned out to be 107 RU. For the same molecule, the “TL1A Binding Level (Early)” value in experiment [3] stood at 130 RU.

B6: 320-590 (antibody, human IgG1, name in Kabat numbering, V domains shown)
VH: QVQLVQSGAEVKKPGASVKVSCKASGYTFTSYDINWVRQAPGQGLEWMGWLNPNSGYTGYAQKFQGRVTMTADRSTSTAYMELSSLRSEDTAVYYCAREVPETAAFEYWGQGTLVTVSS
VL: QSVLTQPPSVSGAPGQRVTISCTSSSSDIGAGQGVHWYQQLPGTAPKLLIEGYYNRPSGVPDRFSGSKSGTSASLTITGLLPEDEGDYYCQSYDGTLSALFGGGTKLTVLG
notes: as for B2
As for B6, the “TL1A Binding Level (Late)” value in experiment [4] is 121 RU. The “TL1A Binding Level (Early)” value in experiment [5] came out at 130 RU. Also, in experiment [6], the “Antibody IC50” value stood at 6 ng/mL and the “Fold improvement” value stood at 3 fold.

B7: 320-188 (antibody, human IgG1, name in Kabat numbering, V domains shown)
VH: QVQLVQSGAEVKKPGASVKVSCKASGYTFTSYDINWVRQAPGQGLEWMGWLNPNSGNTGYAQKFQGRVTMTADRSTSTAYMELSSLRSEDTAVYYCAREVPETAAFEYWGQGTLVTVSS
VL: QSVLTQPPSVSGAPGQRVTISCTSSSSDIGAGLGVHWYQQLPGTAPKLLIEGYYNRPSGVPDRFSGSKSGTSASLTITGLHPEDEGDYYCQSYDGTLSALFGGGTKLTVLG
notes: human IgG1, lambda
In experiment [1], B7 showed an Antibody IC50, TL1A induced caspase potency assay in TF-1 cells of 10 ng/mL and a Fold improvement over 320-179, TL1A induced caspase potency assay in TF-1 cells of 4 fold. In experiment [2], the “TL1A Binding Level (Late)” value was 113 RU. Moreover, in experiment [3], the “TL1A Binding Level (Early)” value is 136 RU.

B8: 320-591 (antibody, human IgG1, V domains shown)
VH: QVQLVQSGAEVKKPGASVKVSCKASGYTFTSYDINWVRQAPGQGLEWMGWLNPNSGYTGYAQKFQGRVTMTADRSTSTAYMELSSLRSEDTAVYYCAREVPETAAFEYWGQGTLVTVSS
VL: QSVLTQPPSVSGAPGQRVTISCTSSSSDIGAGLGVLWYQQLPGTAPKLLIEGYYNRPSGVPDRFSGSKSGTSASLTITGLLPEDEGDYYCQSYDGTLSALFGGGTKLTVLG
notes: as for B2
As for B8, in experiment [4], the “TL1A Binding Level (Late)” value was 124 RU. For the same molecule, the “TL1A Binding Level (Early)” value in experiment [5] stood at 132 RU. Further, in experiment [6], the “Antibody IC50” value was determined as 2 ng/mL and the “Fold improvement” value turned out to be 10 fold.

B9: 320-593 (antibody, human IgG1, name in Kabat numbering, V domains shown)
VH: QVQLVQSGAEVKKPGASVKVSCKASGYTFTSYDINWVRQAPGQGLEWMGWLNPNSGYTGYAQKFQGRVTMTADRSTSTAYMELSSLRSEDTAVYYCAREVPETAAFEYWGQGTLVTVSS
VL: QSVLTQPPSVSGAPGQRVTISCTSSSSDIGAGSGVHWYQQLPGTAPKLLIEGYYNRPSGVPDRFSGSKSGTSASLTITGLLPEDEGDYYCQSWDGTLSALFGGGTKLTVLG
notes: as for B2
With B9, the “TL1A Binding Level (Late)” value in experiment [4] was determined as 124 RU. Further, the “TL1A Binding Level (Early)” value in experiment [5] is 126 RU. In experiment [6], the “Antibody IC50” value came to 4 ng/mL and the “Fold improvement” value stood at 15 fold.

B10: 320-186 (antibody, human IgG1, name in Kabat numbering, V domains shown)
VH: QVQLVQSGAEVKKPGASVKVSCKASGYTFTSYDINWVRQAPGQGLEWMGWLNPNSGNTGYAQKFQGRVTMTADRSTSTAYMELSSLRSEDTAVYYCAREVPETAAFEYWGQGTLVTVSS
VL: QSVLTQPPSVSGAPGQRVTISCTSSSSDIGAGLGVHWYQQLPGTAPKLLIEGYYNRPSGVPDRFSGSKSGTSASLTITGLQPEDEGDYYCQSYDGTLSALFGGGTKLTVLG
notes: human IgG1, lambda
In experiment [1], B10 had an Antibody IC50, TL1A induced caspase potency assay in TF-1 cells of 30 ng/mL and a Fold improvement over 320-179, TL1A induced caspase potency assay in TF-1 cells of 1 fold. In addition, the “TL1A Binding Level (Late)” value in experiment [2] came to 113 RU. For the same molecule, the “TL1A Binding Level (Early)” value in experiment [3] is 136 RU.

B11: 320-592 (antibody, human IgG1, name in Kabat numbering, V domains shown)
VH: QVQLVQSGAEVKKPGASVKVSCKASGYTFTSYDINWVRQAPGQGLEWMGWLNPNSGYTGYAQKFQGRVTMTADRSTSTAYMELSSLRSEDTAVYYCAREVPETAAFEYWGQGTLVTVSS
VL: QSVLTQPPSVSGAPGQRVTISCTSSSSDIGAALGVHWYQQLPGTAPKLLIEGYYNRPSGVPDRFSGSKSGTSASLTITGLLPEDEGDYYCQSWDGTLSALFGGGTKLTVLG
notes: as for B2
B11: in experiment [4], the “TL1A Binding Level (Late)” value was 129 RU. Moreover, the “TL1A Binding Level (Early)” value in experiment [5] is 128 RU. Moreover, in experiment [6], the “Antibody IC50” value is 3 ng/mL and the “Fold improvement” value came out at 7 fold.

B12: 320-594 (antibody, human IgG1, name in Kabat numbering, V domains shown)
VH: QVQLVQSGAEVKKPGASVKVSCKASGYTFTSYDINWVRQAPGQGLEWMGWLNPNSGYTGYAQKFQGRVTMTADRSTSTAYMELSSLRSEDTAVYYCAREVPETAAFEYWGQGTLVTVSS
VL: QSVLTQPPSVSGAPGQRVTISCTSSSSDIGAGQGVHWYQQLPGTAPKLLIEGYYNRPSGVPDRFSGSKSGTSASLTITGLLPEDEGDYYCQSWDGTLSALFGGGTKLTVLG
notes: as for B2
Consider B12, for which the “TL1A Binding Level (Late)” value in experiment [4] was determined as 132 RU. Moreover, the “TL1A Binding Level (Early)” value in experiment [5] came to 134 RU. Besides, in experiment [6], the “Antibody IC50” value was 5 ng/mL and the “Fold improvement” value was determined as 12 fold.
